Measured values published in the supplement of paper PMC9170038.

Tested on: K4 kissing-loop RNA reporter
Experiment: apparent KD of K4 kissing-loop reporter; higher = weaker reporter binding
Settings: Eterna round: R107
Protocol: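 RNA-MaP round R107: designed RNA switches with theophylline, tryptophan, arginine or FMN aptamers are transcribed on-chip within common flanks. They are titrated with a labelled K4 kissing-loop RNA reporter in RNA-MaP buffer (100 mM Tris pH 7.5, 80 mM KCl, 4 mM MgCl2), without ligand or with the indicated ligand. Median apparent KD per design.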

[1] = input ligand: theophylline 20 uM
[2] = input ligand: tryptophan 2.4 mM
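Also: bound reporter read as fluorescence of individual clusters on recovered sequencing chips by microscopy, with normalized cluster intensities fitted with a binding model.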

Sequence: ACGGAUACGCGAGAUACCAGAGGCAUUCGCCAGCGACCAUAAUGUCCCGAGAGUGAUGUUCUCCCUUGGCAGCUCAUGGUUAAUU [theeternabot_exclusion_KL_Theo_B_2]
- apparent KD of K4 kissing-loop reporter (input ligand: FMN 200 uM): 484 nM
- apparent KD of K4 kissing-loop reporter (input ligand: arginine 13.2 mM): 400 nM
- apparent KD of K4 kissing-loop reporter (input ligand: none): 468 nM
- apparent KD of K4 kissing-loop reporter [1]: 570 nM
- apparent KD of K4 kissing-loop reporter [2]: 385 nM

Sequence: ACGUCUCGUAAACUCGUGGUUUCGAUCGAUACCAGUAGCGAGAGUUACCCUUGGCAGCGACAUGAGUGAUGUUCAUGUACGAAGA [KL-XTheoA2]
- apparent KD of K4 kissing-loop reporter (input ligand: FMN 200 uM): 99.3 nM
- apparent KD of K4 kissing-loop reporter (input ligand: arginine 13.2 mM): 88.5 nM
- apparent KD of K4 kissing-loop reporter (input ligand: none): 93.1 nM
- apparent KD of K4 kissing-loop reporter [1]: 89.8 nM
- apparent KD of K4 kissing-loop reporter [2]: 90.3 nM

Sequence: ACGUGCACCAGUGAUGUUGGAAAAUAUGAAGGAGCGGGAGAAAACCCAGGUAGGUCGCAUAAUUGCACGAGCCACGAAAGUGGCA [#15 K4 Arginine A Same State]
- apparent KD of K4 kissing-loop reporter (input ligand: FMN 200 uM): 73.4 nM
- apparent KD of K4 kissing-loop reporter (input ligand: arginine 13.2 mM): 93.7 nM
- apparent KD of K4 kissing-loop reporter (input ligand: none): 88.3 nM
- apparent KD of K4 kissing-loop reporter [1]: 145 nM
- apparent KD of K4 kissing-loop reporter [2]: 70.8 nM

Sequence: ACGUGUCACUGAAGGAGCGUCUACCGAAUACGAGUGAUGUUCGUACACCACUGAUAUAGUGGACAGGUAGGUCGCAGUGAUACGU [Arg B Ex t3]
- apparent KD of K4 kissing-loop reporter (input ligand: FMN 200 uM): 120 nM
- apparent KD of K4 kissing-loop reporter (input ligand: arginine 13.2 mM): 101 nM
- apparent KD of K4 kissing-loop reporter (input ligand: none): 122 nM
- apparent KD of K4 kissing-loop reporter [1]: 102 nM
- apparent KD of K4 kissing-loop reporter [2]: 107 nM

Sequence: ACUAUCCGUAUAUAUAAGAUAGCUGGAGAUACCAGUUCAAUCUUGAACCCUUGGCAGCUCACCACCAAGUGAUGUUUGGCACGAC [theeternabot_sameState_KL_Theo_A_42]
- apparent KD of K4 kissing-loop reporter (input ligand: FMN 200 uM): 326 nM
- apparent KD of K4 kissing-loop reporter (input ligand: arginine 13.2 mM): 241 nM
- apparent KD of K4 kissing-loop reporter (input ligand: none): 326 nM
- apparent KD of K4 kissing-loop reporter [1]: 292 nM
- apparent KD of K4 kissing-loop reporter [2]: 273 nM

Sequence: ACUGUACCGGGAAGGAGCGUGAAUGAGAAUGGAUAUAGUGAUGUUAUGUAUACGAACGAAUCGCAGGUAGGUCGCCCGGAUCCCU [SSArgB.aC]
- apparent KD of K4 kissing-loop reporter (input ligand: FMN 200 uM): 617 nM
- apparent KD of K4 kissing-loop reporter (input ligand: arginine 13.2 mM): 322 nM
- apparent KD of K4 kissing-loop reporter (input ligand: none): 398 nM
- apparent KD of K4 kissing-loop reporter [1]: 851 nM
- apparent KD of K4 kissing-loop reporter [2]: 553 nM

Sequence: AGAACUGUCUGAGAUACCAGCUAAGGAGUGAUGUUCCUAGGUCCACGAAAGUGGACCCAUAGCCCUUGGCAGCUCAGACAGUUCA [#23 K4 Theophylline B Same State]
- apparent KD of K4 kissing-loop reporter (input ligand: FMN 200 uM): 1280 nM
- apparent KD of K4 kissing-loop reporter (input ligand: arginine 13.2 mM): 833 nM
- apparent KD of K4 kissing-loop reporter (input ligand: none): 1370 nM
- apparent KD of K4 kissing-loop reporter [1]: 674 nM
- apparent KD of K4 kissing-loop reporter [2]: 1160 nM

Sequence: AGAACUGUCUGGGAUACCAGCCGAGGAGUGAUGUUCCGGCUCGACGAAACGUCGAGCUACGGCCCUUGGCAGCUCAGACAGUUCA [#22 K4 Theophylline B Same State]
- apparent KD of K4 kissing-loop reporter (input ligand: FMN 200 uM): 1990 nM
- apparent KD of K4 kissing-loop reporter (input ligand: arginine 13.2 mM): 639 nM
- apparent KD of K4 kissing-loop reporter (input ligand: none): 1170 nM
- apparent KD of K4 kissing-loop reporter [1]: 735 nM
- apparent KD of K4 kissing-loop reporter [2]: 340 nM

Sequence: AGAACUGUCUUGGAUACCAGUGAUGUUGGUAUCUAUGUGUGAGUGCAAAGCGUCCCACAUUGCCCUUGGCAGCUAAGACUGUUCA [Omei KL Theo B Exc A v2]
- apparent KD of K4 kissing-loop reporter (input ligand: FMN 200 uM): 154 nM
- apparent KD of K4 kissing-loop reporter (input ligand: arginine 13.2 mM): 132 nM
- apparent KD of K4 kissing-loop reporter (input ligand: none): 146 nM
- apparent KD of K4 kissing-loop reporter [1]: 216 nM
- apparent KD of K4 kissing-loop reporter [2]: 145 nM

Sequence: AGAAGGAGACUUGCAACGACUCCUUCAGACUAGGAUAUCAGGAAACUGAGAAGGAGUCUACUUGCAGUGAUGUUGCAAGAAUAAU [[F]''-[K]'-[F]'-[F1]-[F2]-[K1]-[K2]_Design3]
- apparent KD of K4 kissing-loop reporter (input ligand: FMN 200 uM): 129 nM
- apparent KD of K4 kissing-loop reporter (input ligand: arginine 13.2 mM): 147 nM
- apparent KD of K4 kissing-loop reporter (input ligand: none): 130 nM
- apparent KD of K4 kissing-loop reporter [1]: 135 nM
- apparent KD of K4 kissing-loop reporter [2]: 125 nM

Sequence: AGACCUCAGUGAUGUUGAGGUAACACUGAUACCAGCGACUUAAUUCGCCCUUGGCAGCAGUCCACCGAGGUAUCUGAUUAGGUCA [#24 K4 Theophylline A Exclusion]
- apparent KD of K4 kissing-loop reporter (input ligand: FMN 200 uM): 171 nM
- apparent KD of K4 kissing-loop reporter (input ligand: arginine 13.2 mM): 173 nM
- apparent KD of K4 kissing-loop reporter (input ligand: none): 179 nM
- apparent KD of K4 kissing-loop reporter [1]: 273 nM
- apparent KD of K4 kissing-loop reporter [2]: 155 nM

Sequence: AGACUACUGACAGGAUAUAACAUCCUGGUCGUAUACCGAAAGGUAUACGAUUUCCUUCUAGUGAUGUUAGAAGGGUCGGUAGUCA [Omei KL FMN B Exc B v14]
- apparent KD of K4 kissing-loop reporter (input ligand: FMN 200 uM): 103 nM
- apparent KD of K4 kissing-loop reporter (input ligand: arginine 13.2 mM): 78 nM
- apparent KD of K4 kissing-loop reporter (input ligand: none): 90.7 nM
- apparent KD of K4 kissing-loop reporter [1]: 70.3 nM
- apparent KD of K4 kissing-loop reporter [2]: 82.9 nM

Sequence: AGACUACUGAUAGGAUAUAACAUACUACCUCGUAUACCAAAGGUAUACGAGGCCCUUCUAGUGAUGUUAGAAGGGUCGGUAGUCA [Omei KL FMN B Exc B v5]
- apparent KD of K4 kissing-loop reporter (input ligand: FMN 200 uM): 93.5 nM
- apparent KD of K4 kissing-loop reporter (input ligand: arginine 13.2 mM): 76.4 nM
- apparent KD of K4 kissing-loop reporter (input ligand: none): 79.5 nM
- apparent KD of K4 kissing-loop reporter [1]: 81.2 nM
- apparent KD of K4 kissing-loop reporter [2]: 83.2 nM

Sequence: AGAGAUAUAUGAGGAUAUGAGAUAGUUAAUGAGUGAGUUUUAGUGUUGUUUGGUUAGUGAUGUUAUUUAGAAGGCGUGAGUGAUG [grrfullin]
- apparent KD of K4 kissing-loop reporter (input ligand: FMN 200 uM): 97.7 nM
- apparent KD of K4 kissing-loop reporter (input ligand: arginine 13.2 mM): 66.5 nM
- apparent KD of K4 kissing-loop reporter (input ligand: none): 70.2 nM
- apparent KD of K4 kissing-loop reporter [1]: 80 nM
- apparent KD of K4 kissing-loop reporter [2]: 65.7 nM

Sequence: AGAGUACGAAAGUACUCCUCUACACACUGACGAGGACCGGUACGGCCGCCACUCGAGUUGAGUGAUGUUCGAUAGUGUGUAGAGA [Omei KL Tryp A SS C v3]
- apparent KD of K4 kissing-loop reporter (input ligand: FMN 200 uM): 213 nM
- apparent KD of K4 kissing-loop reporter (input ligand: arginine 13.2 mM): 38.4 nM
- apparent KD of K4 kissing-loop reporter (input ligand: none): 97 nM
- apparent KD of K4 kissing-loop reporter [1]: 312 nM
- apparent KD of K4 kissing-loop reporter [2]: 1120 nM

Sequence: AGAUAGGGCUGAAGGAGCGUCGGAGAAGAGAAGAAGAAAUCCAGUGAUGUUGGAUAAAUCCGACAGGUAGGUCGCAGUUUUAUGA [hbob_SS_Arginine_B_2t137]
- apparent KD of K4 kissing-loop reporter (input ligand: FMN 200 uM): 122 nM
- apparent KD of K4 kissing-loop reporter (input ligand: arginine 13.2 mM): 135 nM
- apparent KD of K4 kissing-loop reporter (input ligand: none): 115 nM
- apparent KD of K4 kissing-loop reporter [1]: 179 nM
- apparent KD of K4 kissing-loop reporter [2]: 119 nM

Sequence: AGAUGGCAGUGAUGUUGCUGUUGGAGGGAUAAGGAUAUUGGCUAAACAAGAAGGUAUCGGCGGCAUUGAGGAAUGGGAGGCGCCU [theeternabot_exclusion_KL_FMN_A_7]
- apparent KD of K4 kissing-loop reporter (input ligand: FMN 200 uM): 530 nM
- apparent KD of K4 kissing-loop reporter (input ligand: arginine 13.2 mM): 329 nM
- apparent KD of K4 kissing-loop reporter (input ligand: none): 510 nM
- apparent KD of K4 kissing-loop reporter [1]: 449 nM
- apparent KD of K4 kissing-loop reporter [2]: 405 nM

Sequence: AGAUUCGACACGGCCGCCACUCGUGGUGGAUUAUCCUAUGUAAGACAUGAGUGAUGUUCAUGUACGAGGACCGGGUGUUGAGUCU [KL-XTryp-B5 #analogue]
- apparent KD of K4 kissing-loop reporter (input ligand: FMN 200 uM): 496 nM
- apparent KD of K4 kissing-loop reporter (input ligand: arginine 13.2 mM): 403 nM
- apparent KD of K4 kissing-loop reporter (input ligand: none): 488 nM
- apparent KD of K4 kissing-loop reporter [1]: 568 nM
- apparent KD of K4 kissing-loop reporter [2]: 272 nM

Sequence: AGCAUUAUCAGAAGGAGCGUGUAUAAUUCAAGAGAAUUGUUUUCGAGUGAUGUUCGUAAUACACAGGUAGGUCGCUGAUAUAGCA [JR_ExcArginiB_Sub001]
- apparent KD of K4 kissing-loop reporter (input ligand: FMN 200 uM): 224 nM
- apparent KD of K4 kissing-loop reporter (input ligand: arginine 13.2 mM): 258 nM
- apparent KD of K4 kissing-loop reporter (input ligand: none): 257 nM
- apparent KD of K4 kissing-loop reporter [1]: 302 nM
- apparent KD of K4 kissing-loop reporter [2]: 221 nM

Sequence: AGCAUUUUCAGAAGGAGCGUGAAUUAUUCUUAAGUAUAUUAUACGAGUGAUGUUCGUAUUUCACAGGUAGGUCGCUGAUAUAGCA [JR_SSArginiB_Sub003]
- apparent KD of K4 kissing-loop reporter (input ligand: FMN 200 uM): 57.4 nM
- apparent KD of K4 kissing-loop reporter (input ligand: arginine 13.2 mM): 89.2 nM
- apparent KD of K4 kissing-loop reporter (input ligand: none): 54.6 nM
- apparent KD of K4 kissing-loop reporter [1]: 76.2 nM
- apparent KD of K4 kissing-loop reporter [2]: 46.8 nM

Sequence: AGCGACUCGAAAGGGUCGCGGCUAAGGGAUACCAGUGAUGUUGGUCACCCUUGGCAGCCCAGAAGCCAAGCCACCAAAGGUGGCA [Omei KL Theo A Exc A v10]
- apparent KD of K4 kissing-loop reporter (input ligand: FMN 200 uM): 124 nM
- apparent KD of K4 kissing-loop reporter (input ligand: arginine 13.2 mM): 99 nM
- apparent KD of K4 kissing-loop reporter (input ligand: none): 119 nM
- apparent KD of K4 kissing-loop reporter [1]: 114 nM
- apparent KD of K4 kissing-loop reporter [2]: 116 nM
